# T1: recombinant human IL-23 (hrIL-23), produced at Centocor (human, UniProt P29460 23-328)
# T1 sequence 1: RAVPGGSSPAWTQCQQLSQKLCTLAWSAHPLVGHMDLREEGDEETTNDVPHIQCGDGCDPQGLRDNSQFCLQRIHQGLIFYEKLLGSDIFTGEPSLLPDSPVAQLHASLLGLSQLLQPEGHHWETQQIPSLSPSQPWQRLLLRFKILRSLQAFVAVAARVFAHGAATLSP
# T1 sequence 2: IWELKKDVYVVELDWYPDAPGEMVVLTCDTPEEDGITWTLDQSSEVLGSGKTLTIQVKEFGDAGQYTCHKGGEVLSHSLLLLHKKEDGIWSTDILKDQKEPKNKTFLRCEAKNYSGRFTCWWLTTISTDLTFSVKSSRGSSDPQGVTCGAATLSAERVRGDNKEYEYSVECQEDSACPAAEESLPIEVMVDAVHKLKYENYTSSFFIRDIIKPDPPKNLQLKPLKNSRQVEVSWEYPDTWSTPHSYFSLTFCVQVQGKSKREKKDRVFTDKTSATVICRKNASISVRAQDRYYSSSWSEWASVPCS
# T2: recombinant human IL-12 (hrIL-12), produced at Centocor (human, UniProt P29459 23-219; P29460 23-328)
# T2 construct: p35-p40 heterodimer; also called hIL-12; IL-12 CNTO
# T2 sequence (looked up) 1: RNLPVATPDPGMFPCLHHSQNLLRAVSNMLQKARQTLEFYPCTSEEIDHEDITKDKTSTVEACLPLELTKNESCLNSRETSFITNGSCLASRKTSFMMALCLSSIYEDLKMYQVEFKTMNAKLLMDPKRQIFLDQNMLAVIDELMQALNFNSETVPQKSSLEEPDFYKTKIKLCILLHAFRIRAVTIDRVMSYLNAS
# T2 sequence (looked up) 2: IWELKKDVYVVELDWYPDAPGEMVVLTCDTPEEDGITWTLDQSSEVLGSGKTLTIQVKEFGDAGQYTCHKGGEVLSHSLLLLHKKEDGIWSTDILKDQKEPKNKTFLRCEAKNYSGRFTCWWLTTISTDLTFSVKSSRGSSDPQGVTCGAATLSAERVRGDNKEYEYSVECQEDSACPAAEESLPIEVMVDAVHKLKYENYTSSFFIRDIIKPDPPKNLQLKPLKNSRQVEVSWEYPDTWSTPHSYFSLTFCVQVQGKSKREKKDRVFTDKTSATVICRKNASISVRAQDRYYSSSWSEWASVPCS
# T3: IL-12 (R&D) (UniProt P29459 23-219; P29460 23-328)
# T3 construct: bought from R&D Systems; also called R&D IL-12
# T3 sequence (looked up) 1: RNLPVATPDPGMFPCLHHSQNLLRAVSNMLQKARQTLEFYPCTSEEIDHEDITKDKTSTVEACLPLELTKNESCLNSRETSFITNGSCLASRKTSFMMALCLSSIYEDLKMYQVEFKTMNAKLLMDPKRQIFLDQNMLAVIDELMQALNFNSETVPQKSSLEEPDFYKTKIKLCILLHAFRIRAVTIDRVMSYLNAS
# T3 sequence (looked up) 2: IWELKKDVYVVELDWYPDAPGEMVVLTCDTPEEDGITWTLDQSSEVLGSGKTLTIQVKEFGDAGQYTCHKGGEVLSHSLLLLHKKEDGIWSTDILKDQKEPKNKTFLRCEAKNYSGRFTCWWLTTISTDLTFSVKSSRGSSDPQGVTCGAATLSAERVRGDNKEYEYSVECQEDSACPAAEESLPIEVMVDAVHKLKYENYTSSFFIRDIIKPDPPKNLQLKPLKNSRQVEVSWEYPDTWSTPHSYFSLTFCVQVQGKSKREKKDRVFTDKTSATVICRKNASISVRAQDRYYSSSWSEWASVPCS
# Molecular target: T1, recombinant human IL-23 (hrIL-23), …
# Assay: cell-based or functional assay
row,Binder,"Inhibition of IL-17 production, IC50 [µg/mL]"
1,"mAb MOR05031 (antibody, IgG1, V domains shown) VH: QVELVQSGAEVKKPGSSVKVSCKASGGTFSSNYISWVRQAPGQGLEWMGGIIPIFGHANYAQKFQGRVTITADESTSTAYMELSSLRSEDTAVYYCARSKKGMYGGWTYPLMMFDLWGQGTLVTVSS VL: DIVLTQSPATLSLSPGERATLSCRASQSVSSNYLAWYQQKPGQAPRLLIYYASRRATGVPARFSGSGSGTDFTLTISSLEPEDFAYYCQQTPFTFGQGTKVEIK",0.215
2,"mAb MOR05034 (antibody, IgG1, V domains shown) VH: QVELVQSGAEVKKPGSSVKVSCKASGGTFSSNYISWVRQAPGQGLEWMGIPFGAYAQKFQGRVTITADESTSTAYMELSSLRSEDTAVYYCARSKKGMYGGWTYPLMMFDLWGQGTLVTVSS VL: not shown",0.185
3,"mAb MOR05033 (antibody, IgG1, V domains shown) VH: QVELVQSGAEVKKPGSSVKVSCKASGGTFSSNYISWVRQAPGQGLEWMGIIPGAYAQKFQGRVTITADESTSTAYMELSSLRSEDTAVYYCARSKKGMYGGWTYPLMMFDLWGQGTLVTVSS VL: not shown",0.283
4,"mAb MOR05037 (antibody, IgG1, V domains shown) VH: QVELVQSGAEVKKPGSSVKVSCKASGGTFSSNYISWVRQAPGQGLEWMGIPFGAYAQKFQGRVTITADESTSTAYMELSSLRSEDTAVYYCARSKKGMYGGWTYPLMMFDLWGQGTLVTVSS VL: not shown",0.336
5,"mAb MOR05063 (antibody, IgG1, V domains shown) VH: QVELVESGGGLVQPGGSLRLSCAASGFTFSSFGMSWVRQAPGKGLEWVSNISSSGSSTYYADSVKGRFTISRDNSKNTLYLQMNSLRAEDTAVYYCARYWGTPYLMQFDNWGQGTLVTVSS VL: DIALTQPASVSGSPGQSITISCTGTSSDVGGYNSVSWYQQHPGKAPKLMIYSVSSRPSGVSNRFSGSKSGNTASLTISGLQAEDEADYYCSDVFGGGTKLTVL",0.198
6,"mAb MOR05061 (antibody, IgG1, V domains shown) VH: QVELVESGGGLVQPGGSLRLSCAASGFTFSSFGMSWVRQAPGKGLEWVSNISSSGSSTYYADSVKGRFTISRDNSKNTLYLQMNSLRAEDTAVYYCARYWGTPYLMQFDNWGQGTLVTVSS VL: DIALTQPASVSGSPGQSITISCTGTSSDVGGYNSVSWYQQHPGKAPKLMIYSVSSRPSGVSNRFSGSKSGNTASLTISGLQAEDEADYYCSSYVFGGGTKLTVL",0.309
7,"mAb MOR05062 (antibody, IgG1, V domains shown) VH: QVELVESGGGLVQPGGSLRLSCAASGFTFSSFGMSWVRQAPGKGLEWVSNISSSGSSTYYADSVKGRFTISRDNSKNTLYLQMNSLRAEDTAVYYCARYWGTPYLMQFDNWGQGTLVTVSS VL: DIALTQPASVSGSPGQSITISCTGTSSDVGGYNSVSWYQQHPGKAPKLMIYSVSSRPSGVSNRFSGSKSGNTASLTISGLQAEDEADYYCYVFGGGTKLTVL",0.199

# Molecular target: T1, recombinant human IL-23 (hrIL-23), …
# Assay: IL-23/IL-23R competition assay
row,Binder,IC50 [nM]
1,"Fab MOR05046 (Fab, V domains shown, H-CDR2 matured from 4649) VH: QVQLVQSGAEVKKPGESLKISCKGSGYSFSNYWIGWVRQMPGKGLEWMGIIDPVSSWTKYSPSFQGQVTISADKSISTAYLQWSSLKASDTAMYYCARWYYKPFDVWGQGTLVTVSS VL: DIVLTQPPSVSGAPGQRVTISCTGSSSNIGSGYDVHWYQQLPGTAPKLLIYGNSKRPSGVPDRFSGSKSGTSASLAITGLQSEDEADYYCSSWTPSSVVFGGGTKLTVL",0.03

# Molecular target: T2, recombinant human IL-12 (hrIL-12), …
# Assay: ELISA, antigen in solution to immobilized Fab
row,Binder,binding result
1,"Fab MOR04649 (Fab, V domains shown, HuCAL Gold Fab, lambda) VH: QVQLVQSGAEVKKPGESLKISCKGSGYSFSNYWIGWVRQMPGKGLEWMGIIDPSNSYTNYSPSFQGQVTISADKSISTAYLQWSSLKASDTAMYYCARWYYKPFDVWGQGTLVTVSS VL: DIVLTQPPSVSGAPGQRVTISCTGSSSNIGSGYDVHWYQQLPGTAPKLLIYGNSKRPSGVPDRFSGSKSGTSASLAITGLQSEDEADYYCSSWTPSSVVFGGGTKLTVL",no binding
2,"Fab MOR04658 (Fab, V domains shown, HuCAL Gold Fab, lambda) VH: QVQLVESGGGLVQPGGSLRLSCAASGFTFSSFGMSWVRQAPGKGLEWVSNISSSGSSTYYADSVKGRFTISRDNSKNTLYLQMNSLRAEDTAVYYCARYWGTPYLMQFDNWGQGTLVTVSS VL: DIALTQPASVSGSPGQSITISCTGTSSDVGGYNSVSWYQQHPGKAPKLMIYSVSSRPSGVSNRFSGSKSGNTASLTISGLQAEDEADYYCSSYDTNKPLVVFGGGTKLTVL",no binding

# Molecular target: T3, IL-12 (R&D)
# Assay: ELISA, antigen in solution to immobilized Fab
row,Binder,binding result
1,"Fab MOR04649 (Fab, V domains shown, HuCAL Gold Fab, lambda) VH: QVQLVQSGAEVKKPGESLKISCKGSGYSFSNYWIGWVRQMPGKGLEWMGIIDPSNSYTNYSPSFQGQVTISADKSISTAYLQWSSLKASDTAMYYCARWYYKPFDVWGQGTLVTVSS VL: DIVLTQPPSVSGAPGQRVTISCTGSSSNIGSGYDVHWYQQLPGTAPKLLIYGNSKRPSGVPDRFSGSKSGTSASLAITGLQSEDEADYYCSSWTPSSVVFGGGTKLTVL",no binding
2,"Fab MOR04658 (Fab, V domains shown, HuCAL Gold Fab, lambda) VH: QVQLVESGGGLVQPGGSLRLSCAASGFTFSSFGMSWVRQAPGKGLEWVSNISSSGSSTYYADSVKGRFTISRDNSKNTLYLQMNSLRAEDTAVYYCARYWGTPYLMQFDNWGQGTLVTVSS VL: DIALTQPASVSGSPGQSITISCTGTSSDVGGYNSVSWYQQHPGKAPKLMIYSVSSRPSGVSNRFSGSKSGNTASLTISGLQAEDEADYYCSSYDTNKPLVVFGGGTKLTVL",no binding

# Source: patent US20070218064A1 (published 2007)
